From PMC3722153, “Refolding of a Thermostable Glyceraldehyde Dehydrogenase for Application in Synthetic Cascade Biomanufacturing” (PLoS ONE, 2013) come the findings set out here.

By stoichiometry N is commonly meant a count of units in the complex or per binding partner. What is called Km is the substrate concentration at which the rate is half of its maximum. By Vmax is commonly meant the top rate of the reaction or transport when substrate is in excess.

Data set [1] concerns the molecule itself. The data set is described as follows: SEC; Superdex 200 gel filtration, calibrated with molecular mass standards; 50 mg lyophilized TaAlDH dissolved in 10 mL 20 mM TRIS pH 8; soluble and refolded preparations. On the technique in general: In gel filtration, larger molecules generally elute earlier.
Substrate in data set [2]: NC(=O)c1ccc[n+]([C@@H]2O[C@H](COP(=O)(O)OP(=O)(O)OC[C@H]3O[C@@H](n4cnc5c(N)ncnc54)[C@H](O)[C@@H]3O)[C@@H](O)[C@H]2O)c1
As to the kind of experiment: purified protein. The format is biochemical, Thermoplasma acidophilum. The note with it: 5 mM D-glyceraldehyde, 0-75 mM NAD+, 100 mM HEPES pH 6.2, 50°C, refolded enzyme 0.02 mg/mL, apparent, varied: cofactor. From the text: (§1) (glyceraldehyde dehydrogenase, aldehyde dehydrogenase from Thermoplasma acidophilum)

Substrate in data set [3]: NC(=O)c1ccc[n+]([C@@H]2O[C@H](COP(=O)(O)OP(=O)(O)OC[C@H]3O[C@@H](n4cnc5c(N)ncnc54)[C@H](OP(=O)(O)O)[C@@H]3O)[C@@H](O)[C@H]2O)c1
As to the kind of experiment: purified protein. To be noted: 5 mM D-glyceraldehyde, 0-0.24 mM NADP+, 100 mM HEPES pH 6.2, 50°C, refolded enzyme 0.02 mg/mL, apparent, varied: cofactor. The format is biochemical, Thermoplasma acidophilum.
Excerpt: as §1

B1: glyceraldehyde dehydrogenase (aldehyde dehydrogenase) from Thermoplasma acidophilum (enzyme, UniProt Q9HK01 1-493, looked up)
chain: MDTKLYIDGQWVNSSSGKTVDKYSPVTGQVIGRFEAATRDDVDRAIDAAEDAFWAWNDLGSVERSKIIYRAKELIEKNRAELENIIMEENGKPVKEAKEEVDGVIDQIQYYAEWARKLNGEVVEGTSSHRKIFQYKVPYGIVVALTPWNFPAGMVARKLAPALLTGNTVVLKPSSDTPGSAEWIVRKFVEAGVPKGVLNFITGRGSEIGDYIVEHKKVNLITMTGSTATGQRIMQKASANMAKLILELGGKAPFMVWKDADMDNALKTLLWAKYWNAGQSCIAAERLYVHEDIYDTFMSRFVELSRKLALGDPKNADMGPLINKGALQATSEIVEEAKESGAKILFGGSQPSLSGPYRNGYFFLPTIIGNADQKSKIFQEEIFAPVIGARKISSVEEMYDLANDSKYGLASYLFTKDPNIIFEASERIRFGELYVNMPGPEASQGYHTGFRMTGQAGEGSKYGISEYLKLKNIYVDYSGKPLHINTVRDDLFQ
notes: glyceraldehyde dehydrogenase (TaAlDH) of Thermoplasma acidophilum; calculated mass 56 kDa (56.4 kDa); they are written as one molecule; also called TaAlDH; AlDH; source: E. coli BL21 (DE3)
Regarding B1, the “stoichiometry N” value in data set [1] came out at 2. In addition, the Michaelis constant (Km) in the data set “purified protein [2]” is 22.13 ± 1.43 mM; in “purified protein [3]”, 0.022 ± 0.001 mM. The Vmax in the data set “purified protein [2]” stood at 1.86 µmol/min/mg; in “purified protein [3]”, 0.849 µmol/min/mg.
